In publication PMC549569:

Biological target: αCP1-KH3 (third KH domain of poly(C)-binding protein 1, PCBP1/hnRNP E1) (UniProt Q15365 279-356)
Assay: SPR

Chain of αCP1-KH3 (third KH domain of poly(C)-binding protein 1, PCBP1/hnRNP E1) (Q15365 279-356): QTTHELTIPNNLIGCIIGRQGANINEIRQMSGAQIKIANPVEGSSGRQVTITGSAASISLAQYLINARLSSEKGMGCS

Binder: CUCUCCUUUCUUUUUCUUCUUCCCUCCCUA (ssRNA) [AR mRNA 3'-UTR 30 nt UC-rich RNA (nt 3296-3325)]
- Kd: 4.37 µM
